According to patent US20220073621A1 (EUCURE BEIJING BIOPHARMA, published 2022):
Where a chain is given by its changes, count along the chain named. Numbers in names are those of the source.

B1: 3F2-H2K2-IgG1 (antibody, V domains shown)
VH: DVQLQESGPGLVKPSETLSLTCTVSGYSITSGYNWHWIRQFPGNGLEWMGYIHHSSITNYNPSLKSRITISRDTSKNQFSLKLSSVTAADTATFYCAREGYDYDWFAYWGQGTLVTVSS
VL: DIVLTQSPDFQSVTPKEKVTLSCRASQSISNNLHWYQQKPDESPKLLIKYASQSISGIPSRFSGSGSGTDFTLTINSVEAEDFAMYFCQQSKSWPFTFGQGTRLEIK
B2: 3F2-H3K3-IgG1 (antibody, V domains shown)
VH: B1 VH with A89E
VL: B1 VL with F10T, K18S, P40S, D41H
B3: 3F2-H3K2-IgG1 (antibody, V domains shown)
VH: B1 VH with A89E
VL: B1 VL
B4: 3F2-H4K3-IgG1 (antibody, V domains shown)
VH: B1 VH with G45K, S80F, K82Q, A89E
VL: B1 VL with F10T, K18S, P40S, D41H
B5: 3F2-H1K2-IgG1 (antibody, V domains shown)
VH: B1 VH with D1Q, F94Y
VL: B1 VL
B6: 3F2-H3K1-IgG1 (antibody, V domains shown)
VH: B1 VH with A89E
VL: B1 VL with L21I, S22T
B7: 3F2-H1K3-IgG1 (antibody, V domains shown)
VH: B1 VH with D1Q, F94Y
VL: B1 VL with F10T, K18S, P40S, D41H
B8: 3F2-H4K1-IgG1 (antibody, V domains shown)
VH: B1 VH with G45K, S80F, K82Q, A89E
VL: B1 VL with L21I, S22T
B9: 3F2-H1K1-IgG1 (antibody, V domains shown)
VH: B1 VH with D1Q, F94Y
VL: B1 VL with L21I, S22T
B10: 3F2-H4K2-IgG1 (antibody, V domains shown)
VH: B1 VH with G45K, S80F, K82Q, A89E
VL: B1 VL
B11: 3F2-H2K1-IgG1 (antibody, V domains shown)
VH: B1 VH
VL: B1 VL with L21I, S22T
B12: 3F2-H2K3-IgG1 (antibody, V domains shown)
VH: B1 VH
VL: B1 VL with F10T, K18S, P40S, D41H
B13: 17-7E4-mHvKv-IgG1 (antibody, V domains shown)
VH: QVQLQQSGAELVRPGVSVKISCKGSGFKFTDYAIHWVKQSHAKSLEWIGVISIYYGEASYNQKFKDKATLTVDTSSSTAYMELARLTSEDSAIYYCAREDYYGSSSYFDYWGQGTALTVSS
VL: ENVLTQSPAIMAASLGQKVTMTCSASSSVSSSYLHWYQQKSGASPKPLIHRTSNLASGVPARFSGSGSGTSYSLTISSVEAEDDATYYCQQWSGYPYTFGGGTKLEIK
B14: 23-2A6-mHvKv-IgG1-N297A (antibody, V domains shown)
VH: QVQLKESGPGLVAPSQSLSITCTVSGFSLTSYDISWIRQPPGKGLEWLGAIWTGGGTNYNSAFMSRLSISKDNSKSQVFLKMNSLQTDDTAIYYCVRDPYYYAMDYWGQGTSVTVSS
VL: DIQMNQSPSSLSASLGDTITITCHASQNLNVWLSWYQQKPGNIPKLLIYKASNLHTGVPSRFSGSGSGTGFTLTISSLQPEDIATYYCQQGQSYPRTFGGGTKLEIK
B15: 7E4-H2K2-IgG1 (antibody, V domains shown)
VH: QVQLVQSGAEVKKPGASVKVSCKASGFKFTDYAIHWVRQAPGKSLEWMGVISIYYGEASYNQKFKDRVTLTVDTSASTAYMELSSLRSEDTAVYYCAREDYYGSSSYFDYWGQGTLVTVSS
VL: DNVLTQSPSFLSASVGDRVTMTCSASSSVSSSYLHWYQQKPGASPKPLIHRTSNLASGVPSRFSGSGSGTEFTLTISSLQPEDFATYYCQQWSGYPYTFGGGTKLEIK
B16: 7E4-H2K3-IgG1 (antibody, V domains shown)
VH: B15 VH
VL: B15 VL with D1E, P41S, F72Y, L79V
B17: 7E4-H2K1-IgG1 (antibody, V domains shown)
VH: B15 VH
VL: B15 VL with V3Q, M21I, S44A
B18: 7E4-H1K3-IgG1 (antibody, V domains shown)
VH: B15 VH with K43Q
VL: B15 VL with D1E, P41S, F72Y, L79V
B19: 7E4-H1K2-IgG1 (antibody, V domains shown)
VH: B15 VH with K43Q
VL: B15 VL
B20: 7E4-H1K1-IgG1 (antibody, V domains shown)
VH: B15 VH with K43Q
VL: B15 VL with V3Q, M21I, S44A
B21: 08-3F2-mHvKv-IgG1 (antibody, V domains shown)
VH: DVQLQESGPDLVKPSQTLSLTCTVTGYSITSGYNWHWIRQFPGNKLEWMGYIHHSSITNYNPSLKSRISITRDTSKNQFFLQLSSVTTEDTATFYCAREGYDYDWFAYWGQGTLVTVSA
VL: DIVLAQSPATLSVTPGDSVSLSCRASQSISNNLHWYQQKSHESPRLLIKYASQSISGIPSRFSGSGSGTDFTLSINSVETEDFGMYFCQQSKSWPFTFGSGTRLEIK
B22: 6A11-H2K3-IgG1 (antibody, V domains shown)
VH: EVQLVESGGGLVQPGGSLRLSCAASGFTFSSFGMHWVRQAPGKGLEWVSYISSGSNTIYYADTVKGRFTISRDNAKNSLYLQMNSLRAEDTAVYYCTRNGYDGWYAMDYWGQGTTVTVSS
VL: EIVLTQSPATLSASPGERATLSCSASSSVSYIHWFQQKPGQSPRRWIYDTSKLASGIPARFSGSGSGTDYTLTISSMEPEDFATYYCQQWSTNPFTFGQGTKLEIKR
B23: 6A11-H1K4-IgG1 (antibody, V domains shown)
VH: B22 VH with T97A
VL: B22 VL with D69S, F82A
B24: 6A11-H4K4-IgG1 (antibody, V domains shown)
VH: B22 VH with L18R, S49A, A75P, V93I
VL: B22 VL with D69S, F82A
B25: 6A11-H3K4-IgG1 (antibody, V domains shown)
VH: B22 VH with L18R, S49A
VL: B22 VL with D69S, F82A
B26: 6A11-H1K3-IgG1 (antibody, V domains shown)
VH: B22 VH with T97A
VL: B22 VL
B27: 6A11-H2K4-IgG1 (antibody, V domains shown)
VH: B22 VH
VL: B22 VL with D69S, F82A
B28: 6A11-H4K3-IgG1 (antibody, V domains shown)
VH: B22 VH with L18R, S49A, A75P, V93I
VL: B22 VL
B29: 6A11-H3K3-IgG1 (antibody, V domains shown)
VH: B22 VH with L18R, S49A
VL: B22 VL
B30: 07-6A11-mHvKv-IgG1 (antibody, V domains shown)
VH: DVQLVESGGGLVQPGGSRKLSCAASGFTFSSFGMHWVRQAPEKGLEWVAYISSGSNTIYYADTVKGRFTISRDNPKNTLFLQMTSLRSEDTAIYYCTRNGYDGWYAMDYWGQGTSVTVSS
VL: QIVLTQSPAIMSASPGEKVTMTCSASSSVSYIHWFQQKSGTSPKRWIYDTSKLASGVPARFSGRGSGTSYSLTISSMEAEDAATYYCQQWSTNPFTFGSGTKLEIK
B31: 33-10C9-mHvKv-IgG1-N297A (antibody, V domains shown)
VH: QVQLQQPGAELVKPGSSVKLSCKASGYTFTTYYIYWVKQRPGQGLEWIGGINPYNGGTSFNEKFESKATLTVDISSSTAFMQLSSLTSEDSAVYYCTRDGNYVDYWGQGTTLTVSS
VL: QIVLTQSPAIMSASPGEKVTITCSASSTVSYVHWLQQKPDTSPKLWIYSTSNLASGVPARFSGSGSGTSYSLTISRMEAEDAATYYCQQRSSSPPTFGSGTKLEIK

The binders below were run against T1, hPD-L1-His (human, UniProt Q9NZQ7 19-238) (assay: SPR (Biacore T200), antibody on Protein A chip, hPD-L1-His injected, 1:1 fit).
T1 construct: Bought protein; also called hPD-L1-His (manufactured by Edison); not shown: His tag
Protocol: Subsequently, the binding affinity of the anti-PD-L1 chimeric antibody, humanized antibody, and marketed control antibody to hPD-L1-His (manufactured by Edison) were determined by surface plasmon resonance (Biacore T200 biosensor, Biacore, INC, Piscataway N.J.) equipped with pre-immobilized Protein A sensor chips.
The detection results were read after the chip was regenerated with pH 2.0 glycine (30 μl/min, 10-20 s). Kinetic association rates (kon) and dissociation rates (koff) were obtained simultaneously by fitting the data globally to a 1:1 Langmuir binding model (Karlsson, R. Roos, H. Fagerstam, L. Petersson, B., 1994. Methods Enzymology 6. 99-110) using Biacore T200 Evaluation Software 3.0. Affinities were deduced from the quotient of the kinetic rate constants (KD=koff/kon).

T1 sequence (Q9NZQ7 19-238 limits assumed): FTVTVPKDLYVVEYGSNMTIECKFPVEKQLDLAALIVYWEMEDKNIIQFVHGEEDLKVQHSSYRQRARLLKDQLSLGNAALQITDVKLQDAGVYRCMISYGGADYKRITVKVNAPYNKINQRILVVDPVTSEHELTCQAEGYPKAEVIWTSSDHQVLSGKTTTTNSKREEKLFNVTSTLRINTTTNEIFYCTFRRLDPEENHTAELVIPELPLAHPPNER

Row | Kd | koff | kon | Binder
1 | 0.81 nM | 0.000946 s⁻¹ | 1.17e+06 M⁻¹ s⁻¹ | B1
2 | 0.625 nM | 0.000827 s⁻¹ | 1.32e+06 M⁻¹ s⁻¹ | B2
3 | 0.623 nM | 0.000753 s⁻¹ | 1.21e+06 M⁻¹ s⁻¹ | B3
4 | 0.502 nM | 0.000696 s⁻¹ | 1.39e+06 M⁻¹ s⁻¹ | B4
5 | 0.69 nM | 0.000732 s⁻¹ | 1.06e+06 M⁻¹ s⁻¹ | B5
6 | 0.699 nM | 0.000793 s⁻¹ | 1.13e+06 M⁻¹ s⁻¹ | B6
7 | 0.805 nM | 0.000874 s⁻¹ | 1.09e+06 M⁻¹ s⁻¹ | B7
8 | 0.471 nM | 0.000626 s⁻¹ | 1.33e+06 M⁻¹ s⁻¹ | B8
9 | 0.787 nM | 0.000772 s⁻¹ | 981000 M⁻¹ s⁻¹ | B9
10 | 0.475 nM | 0.000617 s⁻¹ | 1.3e+06 M⁻¹ s⁻¹ | B10
11 | 0.7 nM | 0.000792 s⁻¹ | 1.13e+06 M⁻¹ s⁻¹ | B11
12 | 0.758 nM | 0.000881 s⁻¹ | 1.16e+06 M⁻¹ s⁻¹ | B12
13 | 5.33 nM | 0.000805 s⁻¹ | 151000 M⁻¹ s⁻¹ | B13
14 | 4.64 nM | 0.00266 s⁻¹ | 573000 M⁻¹ s⁻¹ | B14
15 | 21.9 nM | 0.0027 s⁻¹ | 123000 M⁻¹ s⁻¹ | B15
16 | 12.7 nM | 0.00163 s⁻¹ | 128000 M⁻¹ s⁻¹ | B16

Row | Kd | koff | kon | Binder
17 | 27 nM | 0.00344 s⁻¹ | 128000 M⁻¹ s⁻¹ | B17
18 | 13.3 nM | 0.0017 s⁻¹ | 128000 M⁻¹ s⁻¹ | B18
19 | 19.8 nM | 0.0025 s⁻¹ | 126000 M⁻¹ s⁻¹ | B19
20 | 26.5 nM | 0.00313 s⁻¹ | 118000 M⁻¹ s⁻¹ | B20
21 | 0.266 nM | 0.00043 s⁻¹ | 1.62e+06 M⁻¹ s⁻¹ | B21
22 | 8.07 nM | 0.0013 s⁻¹ | 162000 M⁻¹ s⁻¹ | B22
23 | 8.29 nM | 0.00124 s⁻¹ | 149000 M⁻¹ s⁻¹ | B23
24 | 9.59 nM | 0.002 s⁻¹ | 208000 M⁻¹ s⁻¹ | B24
25 | 6.52 nM | 0.00168 s⁻¹ | 258000 M⁻¹ s⁻¹ | B25
26 | 7.8 nM | 0.00113 s⁻¹ | 145000 M⁻¹ s⁻¹ | B26
27 | 7.01 nM | 0.00153 s⁻¹ | 218000 M⁻¹ s⁻¹ | B27
28 | 7.09 nM | 0.00165 s⁻¹ | 233000 M⁻¹ s⁻¹ | B28
29 | 4.91 nM | 0.0013 s⁻¹ | 265000 M⁻¹ s⁻¹ | B29
30 | 3.57 nM | 0.0009 s⁻¹ | 252000 M⁻¹ s⁻¹ | B30
31 | 1.6 nM | 0.000196 s⁻¹ | 122000 M⁻¹ s⁻¹ | B31
